Assay results taken from IntAct's records for PubMed 16648845.

B1: Serine/threonine-protein kinase Nek2 (Homo sapiens), P51955 (parent)
chain: MPSRAEDYEVLYTIGTGSYGRCQKIRRKSDGKILVWKELDYGSMTEAEKQMLVSEVNLLRELKHPNIVRYYDRIIDRTNTTLYIVMEYCEGGDLASVITKGTKERQYLDEEFVLRVMTQLTLALKECHRRSDGGHTVLHRDLKPANVFLDGKQNVKLGDFGLARILNHDTSFAKTFVGTPYYMSPEQMNRMSYNEKSDIWSLGCLLYELCALMPPFTAFSQKELAGKIREGKFRRIPYRYSDELNEIITRMLNLKDYHRPSVEEILENPLIADLVADEQRRNLERRGRQLGEPEKSQDSSPVLSELKLKEIQLQERERALKAREERLEQKEQELCVRERLAEDKLARAENLLKNYSLLKERKFLSLASNPELLNLPSSVIKKKVHFSGESKENIMRSENSESQLTSKSKCKDLKKRLHAAQLRAQALSDIEKNYQLKSRQILGMR

Variants of: B1
Details: with cdc27_human CDC27, P30260
Chain of cdc27_human CDC27, P30260 (P30260 whole entry): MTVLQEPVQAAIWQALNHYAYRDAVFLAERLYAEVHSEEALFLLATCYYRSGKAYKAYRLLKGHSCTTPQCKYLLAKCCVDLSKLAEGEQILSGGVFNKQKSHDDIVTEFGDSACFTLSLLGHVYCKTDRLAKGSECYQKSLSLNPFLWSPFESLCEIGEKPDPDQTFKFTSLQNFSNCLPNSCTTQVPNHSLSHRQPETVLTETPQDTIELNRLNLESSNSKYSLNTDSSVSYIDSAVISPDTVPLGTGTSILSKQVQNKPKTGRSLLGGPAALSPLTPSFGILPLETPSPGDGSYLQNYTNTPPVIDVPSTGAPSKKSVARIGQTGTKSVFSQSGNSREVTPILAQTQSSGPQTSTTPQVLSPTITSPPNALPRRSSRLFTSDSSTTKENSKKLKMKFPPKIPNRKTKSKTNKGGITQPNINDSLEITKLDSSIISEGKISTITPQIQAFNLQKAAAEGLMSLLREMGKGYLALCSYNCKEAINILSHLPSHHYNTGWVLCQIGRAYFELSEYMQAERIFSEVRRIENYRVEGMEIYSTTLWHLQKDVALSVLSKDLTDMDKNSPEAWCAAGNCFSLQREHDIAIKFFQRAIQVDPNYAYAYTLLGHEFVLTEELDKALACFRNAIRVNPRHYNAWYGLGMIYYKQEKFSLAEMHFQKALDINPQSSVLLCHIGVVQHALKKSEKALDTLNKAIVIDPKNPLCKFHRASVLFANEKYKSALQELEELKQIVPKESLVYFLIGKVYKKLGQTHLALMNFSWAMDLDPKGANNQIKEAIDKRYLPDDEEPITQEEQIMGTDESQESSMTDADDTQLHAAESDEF

| effect of a mutation on the interaction | Variant |
| --- | --- |
| decreasing interaction | K391A;E392A;N393A;N399A |
